{"source": "paper PMC4158905", "key": {"[1]": {"biological_target": "recombinant human cytoplasmic dynein 1 complex (human) (UniProt Q14204)"}, "[2]": {"biological_target": "dynein heavy chain (DYNC1H1) (human) (UniProt Q14204)", "assay": "SEC-MALS; purified recombinant dynein complex; single peak of approximately 1.40 MDa against 1.42 MDa expected for a dimeric complex of all six chains"}, "[3]": {"biological_target": "recombinant human cytoplasmic dynein 1 complex (human) (UniProt Q14204)", "assay": "single-molecule two-colour co-localisation (TIRF microscopy); roughly equimolar TMR–dynein and Alexa647–dynein mixed, puncta on microtubules scored for both dyes in kymographs, 2.5 mM ATP; done without and with dynactin and BICD2N"}}, "data": [{"substance": "native dynactin complex from pig brains (from UniProt A0A287B8J2 1-1281; A0A5G2QD80 1-405)", "values": [{"measurement": "proportion of TMR–dynein complexes with unidirectional minus end-directed movement on microtubules, with dynactin and BICD2N at 20 BICD2N dimers: 1 dynein complex: 2 dynactin complexes", "setting": "[1]", "value": 23, "unit": "%"}]}, {"substance": "dynein heavy chain (DYNC1H1), Q14204 1-4646", "values": [{"measurement": "stoichiometry N", "setting": "[2]", "value": 2}]}, {"substance": "recombinant human cytoplasmic dynein 1 complex (from UniProt Q14204 1-4646; O43237-1 1-492; P63172 1-113; Q9NP97-1 1-96; P63167 1-89)", "values": [{"measurement": "percent of dynein puncta that contained both dyes", "setting": "[3]", "value": 6, "unit": "%"}]}]}
